These results are taken from US20230287088A1 (BIONTECH, published 2023).

Sequences and labels used below:
B1: P043.A.00095.D06 (protein sample ID 470) (antibody, V domains shown)
VH: QEQLEESGGDLVKPEGSLTLTCTASGFSFSSNYWICWVRQAPGKGLEWIGCIYIGSGDTYYASWAKGRFTISKTSSTTVTLQMTSLTAADTATYFCARSYTPGSYYNMNLWGPGTLVTVSS
VL: DVVMTQTPSSVSAAVGGTVTINCQASQQISNELSWYQQKSGQPPKLLIYDASDLASGVPSRFKGSGSGTEFTLTISDLESADAATYYCQSTGGASSDGNAFGGGTEVVVK
notes: also called S1 targeting antibody 470; anti-S1-antibody 470
B2: P043.A.00032.C04 (antibody, V domains shown)
VH: QSLEESGGRLVTPGTPLTLTCTASGFSLSSYWMSWVRQAPGKGLEWIGIIYVSGSTYYASWAKGRFTISKTSTTVDLKMTSLTTEDTATYFCARVDYSTGWPLFNIWGPGTLVTVSL
VL: AQVLTQTASPVSAAVGGTVTINCQSSQSVYDNNWLGWYQQKPGQPPKLLIYGASILASGVPSRFKGSGSGTQFTLTISDLESDDAATYYCQGGCSGNTFVFGGGTEVVVK
notes: also called 452; protein sample ID 452
B3: P043.A.00036.C07 (antibody, V domains shown)
VH: QSLEESGGDLVKPGASLTLTCTASGFSFSSSYWICWVRQAPGKGLEWIGCIYTGSGSTWYASWAKGRFTISKTSSTTVTLQMTSLTAADTATYFCARGYGSYMYDFWGPGTLVTVSS
VL: DVVMTQTPASVEAAVGGTVTIKCQASQSISTALAWYQQKPGQPPKLLIYSASTLESGVPSRFKGSGSGTEFTLAISDLESADAATYYCQGADGSSSSFGGGTEVVVK
notes: also called 448; protein sample ID 448
B4: 408: Antibody anti-S1 antibody (LS) (antibody)
heavy: not shown
light: […]
B5: P043.A.00023.E05 (antibody, V domains shown)
VH: QSLEESGGRLVTPGTPLTLTCTVSGFSLSSYAMSWVRQAPGKGLEWIGIISSSGSTYYASWAKGRFTISKTSTTVDLKITSPTTEDTATYFCARDASSRGYYYYYGMDPWGPGTLVTVSS
VL: AIQMTQSPSSLAASVGDTVTITCKASEDIGYGLNWYQQKLGIAPKLLIYGANTLESGVPSRFSGSGSETDYTLTISSVQAEDAGIYYCQQGYSTPLTFGAGTKVEIK
notes: also called 443; protein sample ID 443
B6: P043.A.00023.A08 (protein sample ID 446) (antibody, V domains shown)
VH: QSVEESGGRLVTPGTPLTLTCTVSGFSLSKYAMSWVRQAPGKGLEWIGIISSGGSTYYASWAKGRFTISKTSSTTVDLKITSPTTEDTATYFCARAGYPGYSPHYFNIWGPGTLVTVSL
VL: AIQMTQSPSSLAASVGDTVTITCKASEDIGYELNWYQQKLGIAPKLLIYGANTLESGVPSRFTGSGSETDYTLTISSVQAEDAGIYYCQQGYSTPPTFGAGTKVEIK
B7: P043.A.00097.B02 (antibody, V domains shown)
VH: QELVESGGGLVQAGESLKLSCKASGIDFSSYGISWVRQAPGKGLEWIAYIYPGFGITNYANSVKGRFTISSDNAQNTVFLQMTSLTASDTATYFCTRAYASSSGYYIHYFNLWGPGTLVTVSS
VL: AIQMTQSPSSLAASVGDTVTITCKASEDIGYGLNWYQQKLGIAPKLLIYGANTLESGVPSRFSGSGSETDYTLTISSVQAEDAGIYYCQQAYSTPLTFGAGTKVEIK
B8: P043.A.00017.E04 (antibody, V domains shown)
VH: QSVEESGGRLVTPGTPLTLTCTVSGFSLNNYAMNWVRQAPGKGLEWIGIISSSGNTYYANWAKGRFTISKTSTTVDLKITSPTTEDTATYFCARDSYPGYSPYYGMDPWGPGTLVTVSS
VL: AIQMTQSPSSLAASVGDTVTITCKASEDIAYGLNWYQQKLGITPKLLIYGANTLESGVPSRFSGSGSETHYTLTISSVQAEDAGIYYCQQGYNTPPTFGAGTKVEIK
B9: P043.A.00020.D06 (protein sample ID 444) (antibody, V domains shown)
VH: QSVEESGGRLVTPGTPLTLTCTVSGFSLSSYAMNWVRQAPGKGLEWIGIISSSGSTYYASWAKGRFTISKTSTTVDLKITSPTTEDTATYFCARVGAGYAGYGYDNYYGMDPWGPGTLVTVSS
VL: AIQMTQSPSSLAASVGDTVTITCKASEDIGYGLNWYQQKLGIAPKLLIYGANTLESGVPSRFSGSGSETDYTLTISSVQAEDAGIYYCQQGYSTPLTFGAGTKVEIK
B10: P043.A.00017.E07 (protein sample ID 449) (antibody, V domains shown)
VH: QSVEESGGRLVTPGTPLTLTCTVSGFSLSSYAMSWVRQAPGKGLEWIGIISSSGSTYYASWAKGRFTISKTSTTVDLKITSPTTEDTATYFCARAMYPGYSTGVYNIWGPGTLVTVSL
VL: AIQMTQSPSSLAASVGDTVTITCKASEDIGYELNWYQQKLGIAPKLLIYGANTLESGVPSRFSGSGSETDYTLTISSVQAEDAGIYYCQQGYNTPNTFGAGTKVEIK
B11: P043.A.00092.C12 (antibody, V domains shown)
VH: QEELKETGGGLVQPGGSLTLSCKASGFDFSSYYMSWVRQAPGKGLEWIGVIYASKGSTDYASWVNGRFTISSDNAQNTVDLQMNSLTAADTATYYCARSKRFYTYGYAGYAYAHYYYGMDLWGPGTLVTVSS
VL: AIQMTQSPSSLAASVGDTVTITCKASEDIGYGLNWYQQKLGIAPKLLIYGADTLESGVPSRFSGSGSETDYTLTISSVQAEDAGIYYCQQGYSTPLTFGAGTKVEIK
notes: also called 472; protein sample ID 472
B12: P043.A.00018.C02 (protein sample ID 450) (antibody, V domains shown)
VH: QSVEESGGRLVTPGTPLTLTCTVSGFSLSSYAMSWVRQAPGKGLEWIGIINSGRSTYYASWAKGRFTISKTSTTVDLKITSPTTEDTATYFCARDATSIGYYRYYGMDPWGPGTLVTVSS
VL: AIQMTQSPSSLAASVGDTVTITCKASEDIGYGLNWYQQKLGIAPKLLIYGANTLESGVPSRFSGSGSETDYTLTISSVQAEDAGIYYCQQGYSTPLTFGAGTKVEIK
B13: P043.A.00024.C11 (protein sample ID 451) (antibody, V domains shown)
VH: QSVEESGGRLVTPGTPLTLTCTVSGFSLSSYAMSWVRQAPGKGLEWIGIISSSGTTYYASWAKGPFTISKTSTTVDLKITSPTTEDTATYFCARGGAGYGYAHYYGMDPWGPGTLVTVSS
VL: AIQMTQSPSSLAASVGDTVTITCKASEDIGYGLNWYQQKLGIAPKLLIYGANTLESGVPSRFSGSGSETDYTLTISSVQAEDAGIYYCQQGYSTPLTFGAGTKVEIK
B14: P043.A.00047.H08 (protein sample ID 447) (antibody, V domains shown)
VH: QSLEESGGDLVKPGASLTLTCTASGFSFSSDGMCWVRQAPGKGLEWIACIAAGSSGSTYYATWAQGRFTISKSSSTTVTLQMTSLTAADTATYFCAGEDYTGNNYYALWGPGTLVTVSS
VL: AIDMTQTPSPVSAVVGDTVTINCQASENIYSFLAWYQQKPGQPPKLLIYFASKLASGVPSRFKGSGSGTQFTLTISDVHSDDAAIYYCQQTGTYSDADNTFGGGTEVVVK
notes: also called antibody with the Protein sample ID 447
B15: P043.A.00109.B12 (antibody, V domains shown)
VH: QSLEESGGGLVKPEGSLTLTCKASGFDLNTYYYMCWVRQAPGKGLEWIACIATSDSGHTAYASWARGRFTISKTSSTTVTLQMTGLTAADTATYFCARGGRSVGDGVDLWGPGTLVTVSS
VL: DIVMTQTPASVEAAVGGTVTIKCQASQSISSWLAWYQQKPGQPPKLLIYDASDLASGVPSRFKGSGSGTEFTLTISDLESADAATYYCQSYLYVESGSHGFGFGGGTEVVVR
notes: also called 468; protein sample ID 468
B16: P043.A.00117.C08 (protein sample ID 469) (antibody, V domains shown)
VH: QSLEESGGGLVKPEGSLTLTCKASGFDLNTYYYMCWVRQAPGKGLEWIACIGTSDSGHTAYASWARGRFTISKTSSTTVTLQMTGLTAADTATYFCARGGRSVGDGVDLWGPGTLVTVSS
VL: DIVMTQTPASVEAAVGGTVTIKCQASQSISSWLAWYQQKPGQPPKLLIYDAFDLASGVPSRFKGSGSGTEFTLTISDLESADAATYYCQSYLYGESGSHGFGFGGGTEVVVR

This assay has as its target SARS-CoV-2 S1 protein (HIS tag, active trimer; Acro Biosystems #SPN-C52H8) (SARS-CoV-2, UniProt P0DTC2 16-1213). Nature of the assay: ELISA on coated S active trimer.
For B1, the midpoint of the response, the EC50, lay at 6.9 ng/mL. In the case of B2, the concentration giving a half-maximal response (EC50) worked out at 8.2 ng/mL. With B3 the figure was 7.7 ng/mL; with B4, 25.6 ng/mL.

With B5, the midpoint of the response, the EC50, lay at 9 ng/mL. With B6 the figure was 5.6 ng/mL; with B7, 6.9 ng/mL; with B8, 6.4 ng/mL. Molecule B9 had an EC50 of 11.2 ng/mL. For the molecule B10, the EC50 amounted to 6.6 ng/mL. With B11 the figure was 10.6 ng/mL; with B12, 6.6 ng/mL; with B13, 8.8 ng/mL. With B14 the figure was 9.1 ng/mL; with B15, 10 ng/mL. The value for B16 was 7.8 ng/mL.
